Here are results for 2 molecules from patent publication US9493780B2, “Chloroplast transit peptide” (Dow AgroSciences LLC, priority 2012, dated 2016).

“Also recorded” adds a separate entry of the source.

The subject of one assay is T2 Arabidopsis. Briefly: T2 Arabidopsis events response to glyphosate applied postemergence, visual % injury. In kind it is in vivo, Arabidopsis thaliana. Conditions: T2 Arabidopsis single copy events. From the text: The second generation plants (T2) of selected T1 Arabidopsis events which contained low copy numbers of the dgt-28 transgene were further characterized for glyphosate tolerance. Glyphosate was applied as described previously. The response of the plants is presented in terms of % visual injury 2 weeks after treatment (WAT). […] An arithmetic mean and standard deviation are presented for each construct used for Arabidopsis transformation. The range in individual response is also indicated in the last column for each rate and transformation. Wild-type, non-transformed Arabidopsis (cv. Columbia) served as a glyphosate sensitive control. In the T2 generation hemizygous and homozygous plants were available for testing for each event and therefore were included for each rate of glyphosate tested. Hemizygous plants contain two different alleles at a locus as compared to homozygous plants which contain the same two alleles at a locus. Variability of response to glyphosate is expected in the T2 generation as a result of the difference in gene dosage for hemizygous as compared to homozygous plants. The variability in response to glyphosate is reflected in the standard deviation and range of response.

Assay [1] relates to chloroplasts of the maize protoplast. Briefly: Maize protoplast transient assay of TraP14-GFP (microscopy). In kind it is cell-based, Zea mays. Particulars: TraP14-GFP fusion; microscopy after 12 hours of incubation. From the text: The Trap14v2 chimeric chloroplast transit peptide sequence (SEQ ID NO:8) were cloned upstream of the green fluorescent protein gene and incorporated into construct pDAB109902 (FIG. 4) for testing via the maize protoplast transient in planta assay. The resulting constructs contained a single plant transcription unit (PTU). The first PTU was comprised of the Zea mays Ubiquitin 1 promoter (ZmUbi1 promoter; Christensen, A., Sharrock R., and Quail P., (1992) Maize polyubiquitin genes: structure, thermal perturbation of expression and transcript splicing, and promoter activity following transfer to protoplasts by electroporation, Plant Molecular Biology, 18:675-689), TraP-green fluorescent protein fusion gene (TraP14-GFP; U.S. Pat. No. 7,678,893), and Zea mays Peroxidase 5 3′ untranslated region (ZmPer5 3′UTR; U.S. Pat. No. 6,384,207). The constructs were confirmed via restriction enzyme digestion and sequencing.
Seed of Zea mays var. B104 were surface sterilized by shaking vigorously in 50% Clorox (3% sodium hypochlorite), containing 2-3 drops of Tween 20, for about 20 minutes. […]
Transfection of 100 to 500 μl of protoplasts (1−5×10^5) was completed by adding the protoplasts to a 2 ml microfuge tube containing about 40 μg of plasmid DNA (pDAB106597), at room temperature. […] Fluorescence of GFP was viewed by microscopy after 12 hours of incubation. […]

B1: TraP5 v2: chloroplast transit peptide fused to dgt-28 (protein)
chain: MQLLNQRQALRLGRSSASKNQQVAPLASRPASSLSVSASSVAPAPACSAPAGAGRRAVVVRA
modifications: Chloroplast Transit Peptide
In the case of B1, in the assay on T2 Arabidopsis, the “tolerance to glyphosate” value was “did not provide robust tolerance to glyphosate”.

B2: TraP14: chimeric chloroplast transit peptide (SEQ ID NO:3): N-terminus from Dunaliella salina GPDH, C-terminus from D. salina EPSPS (protein)
chain: MILGSSPTLPHASHPARPGPARPISVNDVVPHVYSAPLSVARRSCSKSSIRSTRRLQTTVCS
modifications: chimeric TraP14 fusion protein
Turning to B2, the “translocation of GFP into chloroplasts” value in assay [1] is reported as “accumulated within the chloroplasts; also recorded: successfully targeted GFP to maize chloroplasts”.
